Drawing on paper PMC1874613, this text covers binding result, Kd and binding signal for 9 molecules.

Where two headings read alike, the source gives them in different places.

Series [1] addresses T1, C-SBP2 (human, UniProt Q96T21 515-854).
T1 sequence: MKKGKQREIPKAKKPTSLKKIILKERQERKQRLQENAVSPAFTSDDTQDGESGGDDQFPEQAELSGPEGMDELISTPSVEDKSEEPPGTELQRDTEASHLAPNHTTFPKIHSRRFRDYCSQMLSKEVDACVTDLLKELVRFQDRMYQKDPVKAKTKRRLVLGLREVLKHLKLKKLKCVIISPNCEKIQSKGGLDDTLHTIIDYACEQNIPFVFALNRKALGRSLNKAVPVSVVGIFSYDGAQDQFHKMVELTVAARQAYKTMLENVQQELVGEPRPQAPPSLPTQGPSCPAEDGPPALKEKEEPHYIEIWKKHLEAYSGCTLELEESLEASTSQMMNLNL
In words: EMSA. On the technique in general: In EMSA bound probe runs differently from free probe, usually more slowly.

For series [2], the target named is T1, C-SBP2. In words: EMSA. This is another data set of the same source.
For series [3], the target named is T2, Snu13p (yeast, UniProt P39990 1-126).
T2 sequence: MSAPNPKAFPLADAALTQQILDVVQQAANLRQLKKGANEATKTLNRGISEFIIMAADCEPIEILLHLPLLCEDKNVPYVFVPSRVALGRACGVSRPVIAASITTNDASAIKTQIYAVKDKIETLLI
In words: EMSA.

Series [4] has as its target T2, Snu13p. The series can be described thus: EMSA. The source holds these as a separate data set.
In series [5] the target is T1, C-SBP2. In words: EMSA. This is another data set of the same source.
In series [6] the target is T2, Snu13p. The series can be described thus: EMSA. The source holds these as a separate data set.
Series [7] deals with T2, Snu13p. The series can be described thus: competition.
Series [8] has as its target T1, C-SBP2. In words: EMSA. The source holds these as a separate data set.

B1: Se3 (structured_RNA)
RNA: GGACCUUUGUACCCCAGAUGAUGCUUUAUCAGGCGGAUGGGUACAAAUGGCAG
Turning to B1, in the series with C-SBP2 [1], the binding result is on record as “binds”.

B2: Se4 (structured_RNA)
RNA: GGACCUUUGUACCCCAGAUGAUAGUAAAGCGCGGCUUGAUGGGUACAAAUGGCAG
Consider B2, for which the binding result with C-SBP2 [1] is reported as “binds”.

B3: Se5 (structured_RNA)
RNA: GGACCUUUGUACCCCAGAUGAUAGUGAGGCGCGGCUUGAUGGGUACAAAUGGCAG
Take B3: in the series with C-SBP2 [1], the binding result was “binds”.

B4: Se6 (structured_RNA)
RNA: GGACCUUUGUACCCCAGAUGAUAGUAAGGCGCGGCUUGAUGGGUACAAAUGGCAG
Consider B4, for which the binding result in the series with C-SBP2 [1] was “binds”.

B5: Se1:Ins (structured_RNA)
RNA: GGACCUUUGUACCCCAGAUGAUGGGCCUUCACUGGCCUUGAUGGGUACAAAUGGCAG
What is called Kd is the concentration at which binding is half-saturated. Low values mean a tighter complex, high ones a looser complex. Take B5: the Kd is 300 nM with C-SBP2 [2] and 25 nM in the series with Snu13p [3].

B6: Se2 (structured_RNA)
RNA: GGACCUUUGUACCCCAGAUGACGGCUCAUUUCGUGCUUGAUGGGUACAAAUGGCAG
As for B6, in the series with C-SBP2 [1], the binding result is “binds”.

B7: Se1 (G-C)5 to (G.G)5 (structured_RNA)
RNA: GGACCUUUGUACCCCAGAUGAUGGCUUCACUGGUUGAUGGGUACAAAUGGCAG
As for B7, in the series with Snu13p [4], the binding signal was ~20 fold lower affinity than Se1.

B8: Se1 (structured_RNA)
RNA: GGACCUUUGUACCCCAGAUGAUGGCUUCACUGCUUGAUGGGUACAAAUGGCAG
Turning to B8, the Kd with C-SBP2 [5] was determined as 500 nM; with Snu13p [6] it was 35 nM.

B9: Se1:Ins + loop (structured_RNA)
RNA: GGACCUUUGUACCCCAGUUUAUGAUGGAUCUUCACUGAUCUUGAUCCCCUGGGUACAAAUGGCAG
On to B9, for which, in the series with Snu13p [7], the binding result is on record as “binds”. Also, the binding signal with C-SBP2 [8] is 4 fold higher affinity than Se1.
